Measurements: US20240132589A1 (ONCORESPONSE, published 2024)
Numbering of substitutions follows the chain as printed. One block for each binder: values may come before it.

What was measured:
[1] = molecular target: T1, Human LILRB2 on stably transduced HEK293T cells (human, UniProt Q8N423 22-597); assay: flow cytometry, HEK293T cells stably expressing human LILRB2
T1 construct: Lentiviral transduction (G&P Biosciences LTV2992); also called HEK293T-LILRB2; LILRB2-expressing HEK293T cells
Method: To confirm binding of LILRB2 antibodies, flow cytometry binding assays were performed using HEK293T cells stably expressing human LILRB2 (Example 3). […] The B2A-IgG1 and B2A-IgG4 chimeras bound the LILRB2-expressing HEK293T cells, with equivalent EC₅₀ values of 0.21 nM and 0.30 nM respectively.
(§1) Select humanized variant antibodies were purified and tested for their ability to bind human LILRB2 by ELISA, using the method described in Example 2, and binding to HEK293T cells expressing human LILRB2, using the method described in Example 4. Representative data are shown for IgG4 variants in Table 6.

LILRB2-Fc protein [2] = molecular target: T2, LILRB2-Fc protein (human, UniProt Q8N423 22-460, limits assumed); assay: blocking ELISA, LILRB2-Fc binding to coated monomer HLA-G; Exp I
T2 construct: also called human LILRB2-Fc; not shown: Fc part
T2 sequence (Q8N423 22-460 limits assumed): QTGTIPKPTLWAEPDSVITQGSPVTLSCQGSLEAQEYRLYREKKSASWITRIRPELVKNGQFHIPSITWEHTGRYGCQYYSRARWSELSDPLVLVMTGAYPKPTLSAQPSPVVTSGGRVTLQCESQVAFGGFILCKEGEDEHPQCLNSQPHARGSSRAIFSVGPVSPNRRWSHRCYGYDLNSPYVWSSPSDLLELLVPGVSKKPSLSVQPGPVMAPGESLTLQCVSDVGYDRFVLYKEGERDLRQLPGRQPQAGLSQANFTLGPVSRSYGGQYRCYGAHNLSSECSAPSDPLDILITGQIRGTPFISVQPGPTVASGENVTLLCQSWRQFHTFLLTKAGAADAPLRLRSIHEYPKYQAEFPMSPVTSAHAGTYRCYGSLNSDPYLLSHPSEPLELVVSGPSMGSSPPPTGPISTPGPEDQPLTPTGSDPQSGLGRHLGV
Method: (§2) Tumor-associated HLA-G is an HLA Class I ligand for LILRB2. Binding of HLA-G to LILRB2 induces an immune suppressive signal in LILRB2 expressing myeloid cells. To determine if the anti-LILRB2 antibodies block the HLA-G-LILRB2 interaction and prevent the induction of an inhibitory signal, blocking ELISA assays in a dose titration were performed. 384-well plates were coated with monomer HLA-G (Fred Hutchinson Cancer Research Center, No. bHLA-G) at a concentration of 5 μg/mL, diluted in PBS, then plates were incubated at RT for 1 hour. Plates were rinsed with Wash Buffer three times, then blocked with Blocking Buffer A for 30 minutes at RT. During blocking incubation step, LILRB2-Fc protein and antibody titrations were prepared in Blocking Buffer A. LILRB2-Fc protein was then incubated with antibody titrations for 30 minutes at RT to allow for binding prior to addition onto plate. Plates were rinsed three times with Wash Buffer, then 25 μL of protein/antibody mixture was added per well and incubated for 1 hour at RT. Following antibody incubation, plates were washed three times with Wash Buffer. Anti-human IgG Fc-HRP secondary antibody was diluted and added at 25 μL/well. Plates were incubated in the dark for 1 hour at RT. Following secondary antibody incubation, plates were washed four times with Wash Buffer. 25 μL/well ultra-neat TMB was added per well for development and incubated for 5 minutes at RT. Reaction was stopped using 0.3 M HCl (25 μL/well). Absorbance was read at 450 nm using the Envision. The IC₅₀ for HLA-G blocking by clone B2A-IgG4 was 0.066 μg/mL.
(§3) Select humanized IgG4 variant antibodies were tested for their ability to block binding of human LILRB2-Fc to monomer HLA-G by ELISA, using the method described in Example 7.

LILRB2-Fc protein [3] = molecular target: T2, LILRB2-Fc protein; assay: blocking ELISA, LILRB2-Fc binding to coated monomer HLA-G; Exp II
Method: as §2, §3

[4] = molecular target: T3, Recombinant human LILRB2 protein (ELISA antigen) (human, UniProt Q8N423 22-460); assay: ELISA, immobilized LILRB2-His; conditioned media of transient transfections
T3 construct: also called LILRB2-His; recombinant LILRB2
T3 sequence (Q8N423 other isoform, or with tags, fused parts or gaps limits assumed): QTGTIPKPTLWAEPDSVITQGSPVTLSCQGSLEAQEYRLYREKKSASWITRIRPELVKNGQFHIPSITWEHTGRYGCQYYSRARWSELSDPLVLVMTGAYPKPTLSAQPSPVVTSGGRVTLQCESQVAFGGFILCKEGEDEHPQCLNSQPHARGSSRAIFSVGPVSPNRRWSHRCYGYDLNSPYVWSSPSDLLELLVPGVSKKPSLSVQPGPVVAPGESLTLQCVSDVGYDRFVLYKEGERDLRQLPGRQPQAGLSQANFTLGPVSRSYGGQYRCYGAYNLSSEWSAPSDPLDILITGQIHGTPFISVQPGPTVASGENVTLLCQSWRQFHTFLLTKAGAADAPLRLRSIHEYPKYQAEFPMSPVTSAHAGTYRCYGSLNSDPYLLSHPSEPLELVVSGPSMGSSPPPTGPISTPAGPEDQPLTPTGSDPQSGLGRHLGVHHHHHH
Method: (§4) To confirm binding to human and cynomolgus LILRB2, antibodies in supernatants were evaluated for binding by enzyme-linked immunosorbent assay (ELISA). Recombinant LILRB2 proteins (human: SEQ ID NO: 48; cynomolgus) were diluted in PBS to 2 μg/mL and added to 384-well high-binding ELISA plates (Greiner Bio-One Microlon™) at 25 μL/well and incubated at 4° C. overnight. The plates were washed three times with Wash Buffer (0.05% Tween® 20 in PBS), using a microplate washer and then blocked with 90 μL/well of ELISA Blocking Buffer A (1% BSA in PBS) for 1 hour at room temperature (RT). After blocking, 25 μL/well of LILRB2 antibodies or isotype control were added to the plates and incubated for 1 hour at RT. After primary antibody binding, plates were washed three times with Wash Buffer using a microplate washer. Secondary detection antibody (HRP-goat anti-rabbit Fab fragment) was diluted to 1:3000 in assay diluent (1% BSA in PBS) and 25 μL/well was added to plates and incubated at RT protected from light for 1 hour. Following incubation, plates were washed four times with Wash Buffer, using a microplate washer. After removal of the final wash, 25 μL/well of 1-Step™ Ultra TMB-ELISA Substrate Solution (Thermo Fisher, No. 34028) was added and plates were incubated for 5-10 min at RT, protected from light. After development, the reaction was stopped by addition of 25 μL/well of 0.3 M HCl, and plates were read using an EnVision (Perkin Elmer) microplate reader at 450 nm. EC₅₀ values were calculated based on log concentration of the primary antibodies at optical density at 450 nm.
Twenty-five IgG4 variants were expressed in mammalian cell culture as a combinatorial library of the five light and five heavy chains. In addition, B2A-IgG4 was included as a transfection control. The conditioned media from these transient transfections were assayed for human IgG concentration. A plate-based ELISA (see Example 2) was performed in which LILRB2-His was immobilized, and binding of humanized mAb variants was detected via an anti-human IgG4 HRP-labeled secondary antibody. The parental rabbit/human chimera clone transfection served as the benchmark EC₅₀ positive control.

[5] = molecular target: T3, Recombinant human LILRB2 protein (ELISA …); assay: ELISA, plate-coated recombinant human LILRB2
Method: as §4, §1

T1 sequence (Q8N423 other isoform, or with tags, fused parts or gaps limits assumed): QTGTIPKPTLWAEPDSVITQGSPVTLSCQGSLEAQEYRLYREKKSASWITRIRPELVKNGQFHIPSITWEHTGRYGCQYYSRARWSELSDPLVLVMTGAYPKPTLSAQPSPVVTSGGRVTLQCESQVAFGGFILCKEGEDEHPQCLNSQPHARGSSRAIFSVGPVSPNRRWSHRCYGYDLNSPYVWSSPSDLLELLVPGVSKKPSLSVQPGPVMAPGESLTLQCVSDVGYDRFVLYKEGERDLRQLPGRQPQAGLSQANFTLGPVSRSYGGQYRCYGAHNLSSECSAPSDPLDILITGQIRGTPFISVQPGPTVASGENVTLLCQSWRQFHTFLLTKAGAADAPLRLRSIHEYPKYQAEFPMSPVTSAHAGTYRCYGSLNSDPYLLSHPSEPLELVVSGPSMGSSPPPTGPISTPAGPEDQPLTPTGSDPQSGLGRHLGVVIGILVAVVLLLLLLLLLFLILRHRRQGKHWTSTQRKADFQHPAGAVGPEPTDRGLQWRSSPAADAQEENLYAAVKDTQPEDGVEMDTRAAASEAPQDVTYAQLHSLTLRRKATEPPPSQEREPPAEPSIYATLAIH

BMAX [gMFI] [1]: 10400 gMFI
EC50 [1]: 0.17 ng/mL
IC50 (LILRB2-Fc protein [2]): 4040 ng/mL
IC50 (LILRB2-Fc protein [3]): 4090 ng/mL
EC50 [4]: 2.25 ng/mL
EC50 [5]: 2 ng/mL
B1: B2H4-54 (antibody, V domains shown)
VH: EVQLLESGGGLVQPGTSLTLSCAASGFSLSTYAMSWVRQAPGKGLEWIGWIYNDGSTYYAAWAKGRFTISKDTSKTTLYLQITSLRAEDTATYFCAREGDYIGYFNIWGQGTLVTVSS
VL: DIQMTQSPSSVSASVGDRVTITCQASQSIGSNLAWYQQKPGKAPKLLIYAAATLASGVPLRFSGSGSGTDFTLTISNLQPEDSATYYCQSYVSGSSDVAFGGGTKVEIK
notes: Humanized variant, human IgG4 / kappa

BMAX [gMFI] [1]: 10100 gMFI
EC50 [1]: 0.28 ng/mL
IC50 (LILRB2-Fc protein [2]): 5780 ng/mL
IC50 (LILRB2-Fc protein [3]): 6760 ng/mL
EC50 [4]: 3.76 ng/mL
EC50 [5]: 3.05 ng/mL
B2: B2H4-41 (antibody, V domains shown)
VH: B1 VH with G10R, T19R, A24V, I82M, T83N, R86T, A87V
VL: DIQMTQSPSSLSASVGDRVTITCQASQSIGSNLAWYQLKPGQRPKLLIYAAATLASGVPSRFKGSGSGTDFTLTISSLQSEDAATYYCQSYVSGSSDVAFGGGTEVVVK
notes: as for B1

EC50 [4]: 4.96 ng/mL
B3: B2H4-43 (antibody, V domains shown)
VH: B1 VH with G10R, T19R, A24V, I82M, T83N, R86T, A87V
VL: B2 VL with Q3E, L11V, I21L, L38Q, R43A, S80P, A83F
notes: as for B1

EC50 [4]: 5.37 ng/mL
B4: B2H4-52 (antibody, V domains shown)
VH: B1 VH
VL: B1 VL with I2V, Q3V, V15L, K42Q, L60S, S63K, S76T, N77S, E81A, S83F
notes: as for B1

BMAX [gMFI] [1]: 10800 gMFI
EC50 [1]: 0.33 ng/mL
IC50 (LILRB2-Fc protein [2]): 6890 ng/mL
IC50 (LILRB2-Fc protein [3]): 7170 ng/mL
EC50 [5]: 2.82 ng/mL
B5: B2H4-55 (antibody, V domains shown)
VH: B1 VH
VL: DVVMTQTPSSVSAALGGTVTIKCQASQSIGSNLAWYQLKPGQRPKLLIYAAATLASGGSSRFKGSGSGTDFTLTISSLEPADAATYYCQSYVSGSSDVAFGGGTEVVVK
notes: as for B1

BMAX [gMFI] [1]: 10500 gMFI
EC50 [1]: 0.35 ng/mL
IC50 (LILRB2-Fc protein [2]): 7010 ng/mL
IC50 (LILRB2-Fc protein [3]): 7500 ng/mL
EC50 [4]: 3.23 ng/mL
EC50 [5]: 2.81 ng/mL
B6: B2H4-24 (antibody, V domains shown)
VH: EVQLVESGGDLATPGGSLRLSCAVSGFSLSTYAMSWVRQAPGKGLEWVGWIYNDGSTYYAAWAKGRFTISKDTSKTTVYLQMTSLRAEDTALYFCAREGDYIGYFNIWGQGTLVTVSS
VL: B1 VL
notes: as for B1

BMAX [gMFI] [1]: 10900 gMFI
EC50 [1]: 0.31 ng/mL
IC50 (LILRB2-Fc protein [2]): 7040 ng/mL
IC50 (LILRB2-Fc protein [3]): 7290 ng/mL
EC50 [4]: 4.6 ng/mL
EC50 [5]: 2.84 ng/mL
B7: B2H4-44 (antibody, V domains shown)
VH: B1 VH with G10R, T19R, A24V, I82M, T83N, R86T, A87V
VL: B1 VL
notes: as for B1

BMAX [gMFI] [1]: 10200 gMFI
EC50 [1]: 0.35 ng/mL
IC50 (LILRB2-Fc protein [2]): 7640 ng/mL
IC50 (LILRB2-Fc protein [3]): 8290 ng/mL
EC50 [4]: 4.56 ng/mL
EC50 [5]: 2.88 ng/mL
B8: B2H4-25 (antibody, V domains shown)
VH: B6 VH
VL: B5 VL
notes: as for B1

BMAX [gMFI] [1]: 10700 gMFI
EC50 [1]: 0.37 ng/mL
IC50 (LILRB2-Fc protein [2]): 8110 ng/mL
IC50 (LILRB2-Fc protein [3]): 9050 ng/mL
EC50 [4]: 3.85 ng/mL
EC50 [5]: 3.27 ng/mL
B9: B2H4-51 (antibody, V domains shown)
VH: B1 VH
VL: B2 VL
notes: as for B1

BMAX [gMFI] [1]: 10500 gMFI
EC50 [1]: 0.31 ng/mL
IC50 (LILRB2-Fc protein [2]): 6520 ng/mL
IC50 (LILRB2-Fc protein [3]): 7120 ng/mL
EC50 [4]: 3.61 ng/mL
EC50 [5]: 2.3 ng/mL
B10: B2H4-45 (antibody, V domains shown)
VH: B1 VH with G10R, T19R, A24V, I82M, T83N, R86T, A87V
VL: B5 VL
notes: as for B1

BMAX [gMFI] [1]: 9840 gMFI
EC50 [1]: 0.32 ng/mL
IC50 (LILRB2-Fc protein [2]): 7310 ng/mL
IC50 (LILRB2-Fc protein [3]): 7990 ng/mL
EC50 [4]: 4.2 ng/mL
EC50 [5]: 3.98 ng/mL
B11: B2H4-11 (antibody, V domains shown)
VH: QVQLEESGGRVVQPGRSLRLSCAASGFSLSTYAMSWVRQAPGKGLEWIGWIYNDGSTYYAAWAKGRFTISKDTSKTTVFLQMNSLKPDDTATYFCAREGDYIGYFNIWGQGTLVTVSS
VL: B2 VL
notes: as for B1

BMAX [gMFI] [1]: 9950 gMFI
EC50 [1]: 0.31 ng/mL
IC50 (LILRB2-Fc protein [2]): 5850 ng/mL
IC50 (LILRB2-Fc protein [3]): 5970 ng/mL
EC50 [4]: 4.5 ng/mL
EC50 [5]: 3.55 ng/mL
B12: B2H4-13 (antibody, V domains shown)
VH: B11 VH
VL: B2 VL with Q3E, L11V, I21L, L38Q, R43A, S80P, A83F
notes: as for B1

BMAX [gMFI] [1]: 9990 gMFI
EC50 [1]: 0.21 ng/mL
IC50 (LILRB2-Fc protein [2]): 5160 ng/mL
IC50 (LILRB2-Fc protein [3]): 5140 ng/mL
EC50 [4]: 4.67 ng/mL
EC50 [5]: 2.75 ng/mL
B13: B2H4-35 (antibody, V domains shown)
VH: QVQLVESGGRVVQPGTPLRLSCAASGFSLSTYAMSWVRQAPGKGLEWVAWIYNDGSTYYAAWAKGRFTISRDTSKNTLYLQTNSLKPDDTAVYYCAREGDYIGYFNIWGQGTLVTVSS
VL: B5 VL
notes: as for B1
